Publication PMC3510508, “Rbg1–Tma46 dimer structure reveals new functional domains and their role in polysome recruitment” (Nucleic Acids Research, 2012)
Blank lines part the entries; values can stand above or below the binder they belong to.

Assays:
[1] = target: T1, 6His-tagged full-length Rbg1 (yeast) (UniProt P39729)
T1 sequence: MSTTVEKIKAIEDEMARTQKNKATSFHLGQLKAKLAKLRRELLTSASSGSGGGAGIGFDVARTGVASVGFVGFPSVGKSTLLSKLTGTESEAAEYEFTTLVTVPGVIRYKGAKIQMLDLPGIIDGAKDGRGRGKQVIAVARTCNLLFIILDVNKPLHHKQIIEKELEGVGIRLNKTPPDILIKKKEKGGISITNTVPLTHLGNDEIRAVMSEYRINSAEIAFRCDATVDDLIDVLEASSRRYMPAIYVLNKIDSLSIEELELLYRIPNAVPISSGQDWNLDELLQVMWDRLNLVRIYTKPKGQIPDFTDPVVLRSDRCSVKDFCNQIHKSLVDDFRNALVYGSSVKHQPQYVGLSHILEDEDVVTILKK

[2] = substrate: Nc1nc2c(ncn2[C@@H]2O[C@H](COP(=O)(O)OP(=O)(O)OP(=O)(O)O)[C@@H](O)[C@H]2O)c(=O)[nH]1; assay: malachite green phosphate release; type: biochemical, Saccharomyces cerevisiae; conditions: 100 mM KCl, 50 mM Tris pH 7.5, 5 mM MgCl2, 37°C, 1 h, 20 μM protein
[3] = substrate: Nc1nc2c(ncn2[C@@H]2O[C@H](COP(=O)(O)OP(=O)(O)OP(=O)(O)O)[C@@H](O)[C@H]2O)c(=O)[nH]1; assay: malachite green phosphate release; type: biochemical, Saccharomyces cerevisiae; conditions: 100 mM KCl, 50 mM Tris pH 7.5, 5 mM MgCl2, 37°C, 1 h, 20 μM protein; remark: listed apart in the source
Excerpt: malachite green phosphate release on Rbg1fl–Tma46_205–345

[4] = substrate: Nc1nc2c(ncn2[C@@H]2O[C@H](COP(=O)(O)OP(=O)(O)OP(=O)(O)O)[C@@H](O)[C@H]2O)c(=O)[nH]1; assay: malachite green phosphate release; type: biochemical, Saccharomyces cerevisiae; conditions: 100 mM KCl, 50 mM Tris pH 7.5, 5 mM MgCl2, 37°C, 1 h, 20 μM protein; remark: listed apart in the source
Excerpt: malachite green phosphate release on Rbg1fl–Tma46_239–345 (Tma46Δα1)

[5] = substrate: Nc1nc2c(ncn2[C@@H]2O[C@H](COP(=O)(O)OP(=O)(O)OP(=O)(O)O)[C@@H](O)[C@H]2O)c(=O)[nH]1; assay: malachite green phosphate release; type: biochemical, Saccharomyces cerevisiae; conditions: 100 mM KCl, 50 mM Tris pH 7.5, 5 mM MgCl2, 37°C, 1 h, 20 μM protein; remark: listed apart in the source
Excerpt: malachite green phosphate release on Rbg1_1–294–Tma46_205–345 (ΔTGS)

GTP hydrolysis (Malachite green), Vmax (nmol min^−1 mg^−1) [1]: 0.0345
GTP hydrolysis (Malachite green), kcat [1]: 3.33e-05 s⁻¹
B1: Tma46_(205–345 W249A K250E) (domain or fragment)
chain: EQKRLERESLEKQPKITLEEFIETERGKLDKSKLTPITIANFAQAEKDHVIAKINAEKKLSSKRKPTGREIILKMSAENKSFETDNADMPDDVTQGSAWDLTEFTDALKKADHQDDGGIKDYGDGSNPTFDIKKANSATLA

GTP hydrolysis (Malachite green), Vmax (nmol min^−1 mg^−1) [1]: 0.0288
GTP hydrolysis (Malachite green), kcat [1]: 2.83e-05 s⁻¹
B2: Tma46_(205–345 I241A, F246A) (domain or fragment)
chain: EQKRLERESLEKQPKITLEEFIETERGKLDKSKLTPATIANAAQWKKDHVIAKINAEKKLSSKRKPTGREIILKMSAENKSFETDNADMPDDVTQGSAWDLTEFTDALKKADHQDDGGIKDYGDGSNPTFDIKKANSATLA

B3: Rbg1Δ175–243+Gly–Tma46_205–345 (ΔS5D2L) (Saccharomyces cerevisiae S288C; DEL175-243/INS174G) (protein)
chain: MSTTVEKIKAIEDEMARTQKNKATSFHLGQLKAKLAKLRRELLTSASSGSGGGAGIGFDVARTGVASVGFVGFPSVGKSTLLSKLTGTESEAAEYEFTTLVTVPGVIRYKGAKIQMLDLPGIIDGAKDGRGRGKQVIAVARTCNLLFIILDVNKPLHHKQIIEKELEGVGIRLNGPAIYVLNKIDSLSIEELELLYRIPNAVPISSGQDWNLDELLQVMWDRLNLVRIYTKPKGQIPDFTDPVVLRSDRCSVKDFCNQIHKSLVDDFRNALVYGSSVKHQPQYVGLSHILEDEDVVTILKK
notes: 6His-tagged Rbg1 with S5D2L domain (175-243) replaced by one Gly, co-expressed in E. coli with Tma46 205-345; with Translation machinery-associated protein 46
Km [2]: 221.5 ± 159.2 µM
Vmax [2]: 1.57e-05 µmol/min/mg
kcat [2]: 1e-05 s⁻¹

B4: Rbg1fl–Tma46_205–345 (Saccharomyces cerevisiae S288C) (protein)
chain: MSTTVEKIKAIEDEMARTQKNKATSFHLGQLKAKLAKLRRELLTSASSGSGGGAGIGFDVARTGVASVGFVGFPSVGKSTLLSKLTGTESEAAEYEFTTLVTVPGVIRYKGAKIQMLDLPGIIDGAKDGRGRGKQVIAVARTCNLLFIILDVNKPLHHKQIIEKELEGVGIRLNKTPPDILIKKKEKGGISITNTVPLTHLGNDEIRAVMSEYRINSAEIAFRCDATVDDLIDVLEASSRRYMPAIYVLNKIDSLSIEELELLYRIPNAVPISSGQDWNLDELLQVMWDRLNLVRIYTKPKGQIPDFTDPVVLRSDRCSVKDFCNQIHKSLVDDFRNALVYGSSVKHQPQYVGLSHILEDEDVVTILKK
notes: 6His-tagged full-length Rbg1 (N-terminal tag) co-expressed in E. coli with Tma46 residues 205-345; heterodimer; with Translation machinery-associated protein 46
Km [3]: 304.1 ± 32.5 µM
Vmax [3]: 5.93e-05 µmol/min/mg
kcat [3]: 5.67e-05 s⁻¹

B5: Rbg1fl–Tma46_239–345 (Tma46Δα1) (Saccharomyces cerevisiae S288C) (protein)
chain: MSTTVEKIKAIEDEMARTQKNKATSFHLGQLKAKLAKLRRELLTSASSGSGGGAGIGFDVARTGVASVGFVGFPSVGKSTLLSKLTGTESEAAEYEFTTLVTVPGVIRYKGAKIQMLDLPGIIDGAKDGRGRGKQVIAVARTCNLLFIILDVNKPLHHKQIIEKELEGVGIRLNKTPPDILIKKKEKGGISITNTVPLTHLGNDEIRAVMSEYRINSAEIAFRCDATVDDLIDVLEASSRRYMPAIYVLNKIDSLSIEELELLYRIPNAVPISSGQDWNLDELLQVMWDRLNLVRIYTKPKGQIPDFTDPVVLRSDRCSVKDFCNQIHKSLVDDFRNALVYGSSVKHQPQYVGLSHILEDEDVVTILKK
notes: 6His-tagged full-length Rbg1 with Tma46 residues 239-345 (lacks helix α1), expressed in E. coli; with Translation machinery-associated protein 46
Km [4]: 191.2 ± 26.6 µM
Vmax [4]: 3.7e-05 µmol/min/mg
kcat [4]: 3.33e-05 s⁻¹

B6: Rbg1_1–294–Tma46_205–345 (ΔTGS) (Saccharomyces cerevisiae S288C) (protein)
chain: MSTTVEKIKAIEDEMARTQKNKATSFHLGQLKAKLAKLRRELLTSASSGSGGGAGIGFDVARTGVASVGFVGFPSVGKSTLLSKLTGTESEAAEYEFTTLVTVPGVIRYKGAKIQMLDLPGIIDGAKDGRGRGKQVIAVARTCNLLFIILDVNKPLHHKQIIEKELEGVGIRLNKTPPDILIKKKEKGGISITNTVPLTHLGNDEIRAVMSEYRINSAEIAFRCDATVDDLIDVLEASSRRYMPAIYVLNKIDSLSIEELELLYRIPNAVPISSGQDWNLDELLQVMWDRLNLV
notes: 6His-tagged Rbg1 lacking TGS domain (residues 1-294), co-expressed in E. coli with Tma46 205-345; with Translation machinery-associated protein 46
Km [5]: 426.3 ± 165 µM
Vmax [5]: 1.66e-05 µmol/min/mg
kcat [5]: 1.33e-05 s⁻¹
